According to the DeepSol protein solubility set:

Assay: soluble on expression in E. coli; label from the status in PepcDB or PDB records

Sequence	soluble on expression in E. coli
MGSDKIHHHHHHMEHAQMSEKTTNELEKLREHIDSVDQQLLHLLRKRLDLVAQVGGVKHAAGVPIYAPQREASMLAKRREEAAKMNVSPQLIEDILRRLMRESYLNEKDVGFKQVKTDLGHVVIVGGQGKLGGLFAQMLSLSGYQVKSLDKDDWQQADAIFDGAGMVIVTVPISITCELIRDKLTSLPSSCILADLTSIKEKPLEAMLASHQGPVVGLHPMFGPDVGSLAKQVVVVCHGRGREQYEWLLEQIGIWGARLVEADAQQHDKAMQLVQAMRHFSSFVYGLNLYREAADIDNLLQFSSPIYRLELAMVGRLFAQSPELYADIIFAQQESLTAIGDYLDNYAQALELLKRGDRQGFIREFEEVAAWFGDFAPQFQRESRAMLQSVNDMKTG	not soluble
MSLRAALADLHASIVSARKAPFSDRPIEGSLERCLAALAPLCRRARITRLGDLTGLDRLGLPVMQAVRPAALSEVTSLGRGLSRAEAAVGALMESLERYFAEAIPAERTFLATADQLEVTDGLFENLVVPEWRGKWRQRTIAWIEGIDVVGGSAYPVPLELVHTRYSEPQPAHDGAFLRTTTGLACHTSRHGAFLHGLWECLERDAIARAFGTHGFFDRWRIAPCGLGDGVDHIRSLAGARGISFALWLAPSPAAVPVVWCQTVEAGHGEPILALPTEGYAAGPSIEMAAASAMLEALSARAGAISGARDDQTREHYRRSTDAAVAKARELVLADAASKPGEATYATIPDPGTLLDRVVEAGLGPVLAIPVGVDEEAGVHCVRTVLPGASPFFVLREGHHHHHH	not soluble
GSHMASMTGGQQMGRGSMKFSFELAVNTKKEDAWTYYSQVNQWFVWEGDLEQISLEGEFTTGQKGKMKMEDMPELAFTLVEVRENQCFSDLTATPFGNVLFEHEILENPDGTISLRHSVSLTDSDTTEEALAFLKQIFADVPESVGKLKQILETV	soluble
AENNNLKLASTMEGRVEQLAEQRQVIEAGGGERRVEKQHSQGKQTARERLNNLLDPHSFDEVGAFRKHRTTLFGMDKAVVPADGVVTGRGTILGRPVHAASQDFTVMGGSAGETQSTKVVETMEQALLTGTPFLFFYDSGGARIQEGIDSLSGYGKMFFANVKLSGVVPQIAIIAGPCAGGASYSPALTDFIIMTKKAHMFITGPQVIKSVTGEDVTADELGGAEAHMAISGNIHFVAEDDDAAELIAKKLLSFLPQNNTEEASFVNPNNDVSPNTELRDIVPIDGKKGYDVRDVIAKIVDWGDYLEVKAGYATNLVTAFARVNGRSVGIVANQPSVMSGCLDINASDKAAEFVNFCDSFNIPLVQLVDVPGFLPGVQQEYGGIIRHGAKMLYAYSEATVPKITVVLRKAYGGSYLAMCNRDLGADAVYAWPSAEIAVMGAEGAANVIFRKEIKAADDPDAMRAEKIEEYQNAFNTPYVAAARGQVDDVIDPADTRRKIASALEMYATKRQTRPAKKHGNFPC	soluble
MPPDEIEIEPVRQSSDKMLYCEAESPPTVEKVKPARENSETDLEIEDDEKFFTTGQKELYLEACKLMGVVPVSYFIRNMEESYVNLNHHGLGPRGTKAIAIALVSNMAVTKLELEDNCIMEEGVLSLVEMLQENYYLQEMNISNNHLGLEGARIISDFFERNSSSIWSLELSGNDFKEDSAALLCQALSTNYQIKKLDLSHNQFSDVGGEHLGQMLAINVGLTSLDLSWNNFHTRGAVALCNGLRGNVTLTKLDLSMNGFGNEVALALGEVLRLNRCLVYLDIGGNDIGNEGASKISKGLESNESLRVLKLFLNPINMDGAILLILAIKRNPKSRMEELDISNVLVSEQFMKTLDGVYAVHPQLDVVFKAVQGLSPKKTIFLLTNPMKLIQSYADQHKITIVDFFKSLNPTGTMKMSVDEFQKVMIEQNKVPLNQYQVREVIKKLDEKTGMVNFSFLNTMKP	soluble
MEFRVYAGREELAGLVKPMRGGDVEIRIQPVERKVLEFVPLKAETAIEERKSIIVGLDPGITVGIAAIDLDGNIISVYSEKNMALSEIVRFISELGHPIIVATDVNPAPGLVEKIARSFKAQLFVPRESLKVEEKNELLKNLGISVSDDHQRDALEHHHHHH	not soluble
MPRLTDDDKKLLLMLAREAIVTYVREGITPATELSVPSLCEHYGCFVCIKKGGELRGCIGNFTSSQPLYQLVREMAVSAATRDPRFYPMTSKDITDFSLEISVLSPLEKISSPEQITVGTHGIYIEKNFFRGVLLPQVATEYGWDRDTFLMQTCVKAGLKPDDWRDGADIYIFSAEVFSLEHHHHHH	not soluble
MSLETGVTNDAIIIGQSAAMSGPAGKLGQQMNLGAKLYFKSINAAGGIYGRKIELKVLDDFYEPEAAERNTKTLINDTKVFALFGYVGTPTSLAALKVANPAGVPFFAPYSGAMALREPFARNVFHVRASYNDETAAIVQQIRTTGHKRVAVVYNDDSYGAAGLAGVKRALALPENKAVALAVEASVPRNSTTVKAALSKVLPSKADSVVVISTYQTTAALVKEALAEGFTGQFYNVSFVGTKELADALGSAGGGVVVSQVMPFPHSMSSALTRDYEKLLKADGVTSFDYGSMEGYIAARIFVEGLKRAGRDLTREKLITALETMGSTDLGGFAVSFSPTNHVASKFVEMTVINSHGQVIREGHHHHHH	soluble
HPICEVSKVASHLEVNCDKRNLTALPPDLPKDTTILHLSENLLYTFSLATLMPYTRLTQLNLDRAELTKLQVDGTLPVLGTLDLSHNQLQSLPLLGQTLPALTVLDVSFNRLTSLPLGALRGLGELQELYLKGNELKTLPPGLLTPTPKLEKLSLANNNLTELPAGLLNGLENLDTLLLQENSLYTIPKGFFGSHLLPFAFLHGNPWLCNCEILYFRRWLQDNAENVYVWKQGVDVKAMTSNVASVQCDNSDKFPVYKYPGKGCPTLGDEGDTDLYDYYPEEDTEGDKVR	soluble
MNQLNWKDVTPSFEQYEDILKSASSLPKKKFVELQPRLLATVERFKKIKGLTRVLVINCADNTVYRKFICDVVTDGLEPTIMTESLDAKLLFDRYSVDLKGDVVVEAGLLSKAN	not soluble
MGSDKIHHHHHHMTLWQPDPALIRRPAYQSLADQFARAIHDGRLANGARLPTHRRLADDLNLSVQTVSRAYEELIRRGLISGEIGRGSFVQTQRREPEPPYLPERLGEVIDLSILKPVCEPMHLERLKQALGWLAENLPSSSALSFRPNMVFPRHRAVAVEWLKLCGLDISAQNISLTNGATAGMTVALMSVAPPGSTVATEAIGHHTLVPLARYLGFNLQGLPIDDNGLIPEALDEACRLSDIRAVFVQPSVINPTATLMDAQRREQIAAVARKHDIAIIENDVLGPLVEDRPPPVAAFAPERTLYVTSFTKITVPGLRIGYLAAPDRYVAAVANRHLVSNWMATPLVAEIATKWVTDGTAMELVLWQRAALRRRQDIAAEVLARIDYRARRDGLHIWLQLPDDRAEEGFVAQARLQGVAIAPGTSFRISDAPWHPAVRISLGSTTEGELRAGLGVVTKLLLGDPEHLLLAI	not soluble
MNAPLRFGPYAVSRFVDGVYKAPVGHLIHRQGAVALAAVVAGLEGETVDMDVNCFALSGPDGVWLIDAGCGTAWGAAYGHARAAMLAAGIQPDDVSRVILTHIHGDHALGLIDGDRPYFPNAEIWVPEADLAFFTNADARKTLPPARQGGFDLAARLLDICGAMLRPIPTGTVAEDIEAIAMPGHTPGHMGYLIGSGDARLLLWGDVLHVGELQAADPEIAFVYDIDSELAYATRLAALAEAADHGWLVSGGHLGGFFHIERRGDSFRFVPQPG	not soluble
MTIKWIDWVKQIQSIAQAGLTYSKDVYDIERFQQLRDISISMMSHYTKTDWEVVEKLFASETGYQTPKVDIRAVVFQNEKLLFVKEKSDGKWALPGGWADVGYTPTEVAAKEVFEETGYEVDHFKLLAIFDKEKHQPSPSATHVYKIFIGCEIIGGEKKTSIETEEVEFFGENELPNLSIARNTEDQIKEMFAYMKDPQKEKLID	not soluble
MESNEDVERLLCQKYPGLAAELQPSGACIIRGVLGSEDTWRRLKLYLPHHPALHGFQLYVQESLEYKLYTSANLKLQDDWLLEDFLDHLPKILPAQKAPTVPKELCREGNIYYDILALYKSNEYCLQVDEACSMIRFSEFTDFEQHYLELKIPSLLLLDHSLPDCVSLGEMLTKSAGNLEEALNLFRKLLEDLRPFYDNFMDIDELCHVLQPSPISSKHKTRLFPLKDRVYLKLTIADPFACIASMSLKIIGPTEEVARLRHVLSDGLSNWDSEMNIHKNLLRMFDLCYFPMPDWSDGPKLDEEDNEELRCNICFAYRLDGGEVPLVSCDNAKCVLKCHAVCLEEWFKTLMDGKTFLEVSFGQCPFCKAKLSTSFAALLND	soluble
KKMAFTLADRVTEEMLADKAALVVEVVEENYHDAPIVGIAVVNEHGRFFLRPETALADPQFVAWLGDETKKKSMFDSKRAAVALKWKGIELCGVSFDLLLAAYLLDPAQGVDDVAAAAKMKQYEAVRPDEAVYGKGAKRAVPDEPVLAEHLVRKAAAIWELERPFLDELRRNEQDRLLVELEQPLSSILAEMEFAGVKVDTKRLEQMGKELAEQLGTVEQRIYELAGQEFNINSPKQLGVILFEKLQLPVLKKTKTGYSTSADVLEKLAPYHEIVENILHYRQLGKLQSTYIEGLLKVVRPATKKVHTIFNQALTQTGRLSSTEPNLQNIPIRLEEGRKIRQAFVPSESDWLIFAADYSQIELRVLAHIAEDDNLMEAFRRDLDIHTKTAMDIFQVSEDEVTPNMRRQAKAVNYGIVYGISDYGLAQNLNISRKEAAEFIERYFESFPGVKRYMENIVQEAKQKGYVTTLLHRRRYLPDITSRNFNVRSFAERMAMNTPIQGSAADIIKKAMIDLNARLKEERLQAHLLLQVHDELILEAPKEEMERLCRLVPEVMEQAVTLRVPLKVDYHYGSTWYDAK	soluble
GSHMQGQSPIKDQEMKELIRRSQEGDQEARDEIIEKNMRLVWSVVQRFLNRGYEADDLFQIGCIGLLKSVDKFDLSYDVKFSTYAVPMIIGEIQRFLRDDGTVKVSRSLKEMGNKIRKAKDELSKTRGRAPTVTEIADHLGISPEDVVLAQEAVRLPTSIHETVYENDGDPITLLDQIADADEASWFDKIALKKAIEELDERERLIVYLRYYKDQTQSEVASRLGISQVQMSRLEKKILQHIK	soluble
MKKVTKSIKREGSPSDEEYTLEEDPIEFELEKMERGSSNGESEEESQRDQKQADSIIDDMVEQNDQEQEAAGEQDVERENDLRKMYELSLLPPAAIAAQIQQMEKEIYELSQWEARELIRSKHLRIFGNCRRRANKLEHHHHHHH	not soluble
MVIDFNRLNPGSTPATTGRTGSTAAGRPDATGADKAGQAATSAPKSGESVQISETAQNMQKVTDQLQTLPVVDNDKVARIKQAIADGTYQVDSERVASKLLDFESQR	not soluble
MKRKTIDIITLGCSKNLVDSEQLMRQLEEAGYDVTHDSEKPTGEIAVINTCGFIGDAKEESINMILEFAQEKEEGNLEKLFVMGCLSERYLKELAIEIPQVDKFYGKFNWKGLLQDLGKAYHEELHIERTLTTPKHYAYLKISEGCDRKCSYCAIPIITGRHVSRPIEEILDEVRYLVSNGVKEFQVIAQELTYYGVDLYKKQMLPELIERISEIPGVEWIRLHYAYPAHFPEELFRVMRERDNVCKYMDIALQHISDNMLQRMRRHVTKKETYRLIEQFRKEVPGIHLRTTLMVGHPGETEGDFEELKEFVRKVRFDRMGAFTYSEEEGTYAAANYEDSIPQELKQARLDELMAIQQGISTELSASKVGQKMKVIIDRIEGEYYIGRTEFDSPEVDPEVLIRCEGDNLMIGNFYQVQVIDSDEFDLFGEIILEHHHHHH	soluble
